From paper PMC8067709, “Crystal Structure of the Epo1-Bem3 Complex for Bud Growth” (International Journal of Molecular Sciences, 2021)

B1: Bem3^CC1 (1-99) with 6xHis tag, isolated protein [Saccharomyces cerevisiae] / itself (parent)
chain: MTDNLTTTHGGSTTLELLAQYNDHRSKKDKSIEHIEKGTCSGKERNPSYDEIFTENIKLKLQVQEYETEIESLEKVIDMLQKNREASLEVVLEQVQNDS

Variants of: B1
Test: SEC-MALS (MALS coupled with gel filtration)
Settings: read off a plot

Variant | molar mass [kDa]
chain 1 N56A | 17
chain 1 E67A | 20
chain 1 N56A E67A | 18
chain 1 N56A Y66A E67A | 9.5
chain 1 Y66A | 19
chain 1 N56A Y66A | 10
